± gives the standard error.
Experiment: background-corrected fluorescence of 3'-dye-labeled ssDNA relative to brightest sequence (3'-GCGCG) (fraction); higher = brighter dye fluorescence (less quenching)
In short: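 Light-directed phosphoramidite synthesis on glass slides produced single-stranded DNA carrying a 3' Cy3 or Cy5 dye next to each of 1024 permuted pentamers. After a 2 h acetonitrile wash at r.t., arrays were scanned at 532 or 635 nm both before and after overnight deprotection in ethylenediamine/ethanol. Every value is the mean of 10 features per array over at least 3 syntheses. Fluorescence had unlabeled-oligo background subtracted and was scaled to the brightest sequence.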

Sequence | background-corrected fluorescence (dye: Cy3 (3' terminal)) | background-corrected fluorescence (dye: Cy5 (3' terminal))
TTTTTTGCTGCTGCTCATCATTTTTTTTTTTTTTTAAAGG [GGAAA] | 0.646 ± 0.026 | 0.502 ± 0.032
TTTTTTGCTGCTGCTCATGATTTTTTTTTTTTTTTAAAGC [CGAAA] | 0.538 ± 0.018 | 0.426 ± 0.021
TTTTTTGCTGCTGCTCATGCTTTTTTTTTTTTTTTAAAGA [AGAAA] | 0.693 ± 0.03 | 0.568 ± 0.03
TTTTTTGCTGCTGCTGAGCATTTTTTTTTTTTTTTAAACT [TCAAA] | 0.496 ± 0.0053 | 0.349 ± 0.028
TTTTTTGCTGCTGCTGATCATTTTTTTTTTTTTTTAAACG [GCAAA] | 0.559 ± 0.023 | 0.426 ± 0.028
TTTTTTGCTGCTGCTGATGATTTTTTTTTTTTTTTAAACC [CCAAA] | 0.403 ± 0.035 | 0.29 ± 0.015
TTTTTTGCTGCTGCTGATGCTTTTTTTTTTTTTTTAAACA [ACAAA] | 0.51 ± 0.039 | 0.407 ± 0.023
TTTTTTGCTGCTGCTGCGCATTTTTTTTTTTTTTTAAAAT | 0.596 ± 0.022 | 0.462 ± 0.077
TTTTTTGCTGCTGCTGCTCATTTTTTTTTTTTTTTAAAAG [GAAAA] | 0.576 ± 0.021 | 0.403 ± 0.03
TTTTTTGCTGCTGCTGCTGATTTTTTTTTTTTTTTAAAAC [CAAAA] | 0.461 ± 0.048 | 0.321 ± 0.019
TTTTTTGCTGCTGCTGCTGCTTTTTTTTTTTTTTTAAAAA | 0.593 ± 0.0096 | 0.476 ± 0.026

Reference: the supplement of paper PMC9428881
